For orientation: Kd means the concentration at which binding is half-saturated. Read a low Kd as higher affinity.

Here are results for 2 substances from patent US20240285749A1.

This experiment addresses HA ectodomain trimer (UniProt Q289M7). Description: Octet. (In BLI a coated tip is dipped into the sample, and binding shifts an interference pattern.)

CR6261 showed a Kd (Fab) of 0.39 nM. Where the note is “scFv”, F10 registered a dissociation constant Kd of 0.063 nM.
